From patent publication US20260015399A1 (Boehringer Ingelheim, published 2026) come the findings set out here.

*1 amine or outer side, *2 acyl side, *3 side chain or, on linkers, in order; H or OH if unused. Side-chain parts run from the residue outwards. The star is where a group is joined. C18 diacid = O=C(O)CCCCCCCCCCCCCCCCC(=O)*; γGlu = O=C(O)[C@H](CCC(=O)[*:2])N[*:1]; Isovaleryl = CC(C)CC(=O)*; Ahx = NCCCCCC(=O)O

To fix the notation:
B1: Compound 39 (peptide)
peptide: Isovaleryl-APEK([Ahx-γGlu-C18 diacid])PEEDASPEALQEYYVSLRHYYNWLTRQRY-NH2
SMILES: CC(C)CC(=O)N[C@@H](C)C(=O)N1CCC[C@H]1C(=O)N[C@@H](CCC(=O)O)C(=O)N[C@@H](CCCCNC(=O)CCCCCNC(=O)CC[C@H](NC(=O)CCCCCCCCCCCCCCCCC(=O)O)C(=O)O)C(=O)N1CCC[C@H]1C(=O)N[C@@H](CCC(=O)O)C(=O)N[C@@H](CCC(=O)O)C(=O)N[C@@H](CC(=O)O)C(=O)N[C@@H](C)C(=O)N[C@@H](CO)C(=O)N1CCC[C@H]1C(=O)N[C@@H](CCC(=O)O)C(=O)N[C@@H](C)C(=O)N[C@@H](CC(C)C)C(=O)N[C@@H](CCC(N)=O)C(=O)N[C@@H](CCC(=O)O)C(=O)N[C@@H](Cc1ccc(O)cc1)C(=O)N[C@@H](Cc1ccc(O)cc1)C(=O)N[C@H](C(=O)N[C@@H](CO)C(=O)N[C@@H](CC(C)C)C(=O)N[C@@H](CCCNC(=N)N)C(=O)N[C@@H](Cc1c[nH]cn1)C(=O)N[C@@H](Cc1ccc(O)cc1)C(=O)N[C@@H](Cc1ccc(O)cc1)C(=O)N[C@@H](CC(N)=O)C(=O)N[C@@H](Cc1c[nH]c2ccccc12)C(=O)N[C@@H](CC(C)C)C(=O)N[C@H](C(=O)N[C@@H](CCCNC(=N)N)C(=O)N[C@@H](CCC(N)=O)C(=O)N[C@@H](CCCNC(=N)N)C(=O)N[C@@H](Cc1ccc(O)cc1)C(N)=O)[C@@H](C)O)C(C)C
B2: Compound 41 (peptide)
peptide: Isovaleryl-APEK([Ahx-γGlu-C18 diacid])PEEDAEPEELQRYYTSLRHYYQWLTRQRY-NH2
SMILES: CC(C)CC(=O)N[C@@H](C)C(=O)N1CCC[C@H]1C(=O)N[C@@H](CCC(=O)O)C(=O)N[C@@H](CCCCNC(=O)CCCCCNC(=O)CC[C@H](NC(=O)CCCCCCCCCCCCCCCCC(=O)O)C(=O)O)C(=O)N1CCC[C@H]1C(=O)N[C@@H](CCC(=O)O)C(=O)N[C@@H](CCC(=O)O)C(=O)N[C@@H](CC(=O)O)C(=O)N[C@@H](C)C(=O)N[C@@H](CCC(=O)O)C(=O)N1CCC[C@H]1C(=O)N[C@@H](CCC(=O)O)C(=O)N[C@@H](CCC(=O)O)C(=O)N[C@@H](CC(C)C)C(=O)N[C@@H](CCC(N)=O)C(=O)N[C@@H](CCCNC(=N)N)C(=O)N[C@@H](Cc1ccc(O)cc1)C(=O)N[C@@H](Cc1ccc(O)cc1)C(=O)N[C@H](C(=O)N[C@@H](CO)C(=O)N[C@@H](CC(C)C)C(=O)N[C@@H](CCCNC(=N)N)C(=O)N[C@@H](Cc1c[nH]cn1)C(=O)N[C@@H](Cc1ccc(O)cc1)C(=O)N[C@@H](Cc1ccc(O)cc1)C(=O)N[C@@H](CCC(N)=O)C(=O)N[C@@H](Cc1c[nH]c2ccccc12)C(=O)N[C@@H](CC(C)C)C(=O)N[C@H](C(=O)N[C@@H](CCCNC(=N)N)C(=O)N[C@@H](CCC(N)=O)C(=O)N[C@@H](CCCNC(=N)N)C(=O)N[C@@H](Cc1ccc(O)cc1)C(N)=O)[C@@H](C)O)[C@@H](C)O
B3: Compound 45 (peptide)
peptide: Isovaleryl-APEK([Ahx-γGlu-C18 diacid])PEEIATPEELQRYYVSLRHYYNWLTRQRY-NH2
SMILES: CC[C@H](C)[C@H](NC(=O)[C@H](CCC(=O)O)NC(=O)[C@H](CCC(=O)O)NC(=O)[C@@H]1CCCN1C(=O)[C@H](CCCCNC(=O)CCCCCNC(=O)CC[C@H](NC(=O)CCCCCCCCCCCCCCCCC(=O)O)C(=O)O)NC(=O)[C@H](CCC(=O)O)NC(=O)[C@@H]1CCCN1C(=O)[C@H](C)NC(=O)CC(C)C)C(=O)N[C@@H](C)C(=O)N[C@H](C(=O)N1CCC[C@H]1C(=O)N[C@@H](CCC(=O)O)C(=O)N[C@@H](CCC(=O)O)C(=O)N[C@@H](CC(C)C)C(=O)N[C@@H](CCC(N)=O)C(=O)N[C@@H](CCCNC(=N)N)C(=O)N[C@@H](Cc1ccc(O)cc1)C(=O)N[C@@H](Cc1ccc(O)cc1)C(=O)N[C@H](C(=O)N[C@@H](CO)C(=O)N[C@@H](CC(C)C)C(=O)N[C@@H](CCCNC(=N)N)C(=O)N[C@@H](Cc1c[nH]cn1)C(=O)N[C@@H](Cc1ccc(O)cc1)C(=O)N[C@@H](Cc1ccc(O)cc1)C(=O)N[C@@H](CC(N)=O)C(=O)N[C@@H](Cc1c[nH]c2ccccc12)C(=O)N[C@@H](CC(C)C)C(=O)N[C@H](C(=O)N[C@@H](CCCNC(=N)N)C(=O)N[C@@H](CCC(N)=O)C(=O)N[C@@H](CCCNC(=N)N)C(=O)N[C@@H](Cc1ccc(O)cc1)C(N)=O)[C@@H](C)O)C(C)C)[C@@H](C)O
B4: Compound 44 (peptide)
peptide: Isovaleryl-APEK([Ahx-γGlu-C18 diacid])PEEDATPEELQRYYVGLRHYYNWLTRQRY-NH2
SMILES: CC(C)CC(=O)N[C@@H](C)C(=O)N1CCC[C@H]1C(=O)N[C@@H](CCC(=O)O)C(=O)N[C@@H](CCCCNC(=O)CCCCCNC(=O)CC[C@H](NC(=O)CCCCCCCCCCCCCCCCC(=O)O)C(=O)O)C(=O)N1CCC[C@H]1C(=O)N[C@@H](CCC(=O)O)C(=O)N[C@@H](CCC(=O)O)C(=O)N[C@@H](CC(=O)O)C(=O)N[C@@H](C)C(=O)N[C@H](C(=O)N1CCC[C@H]1C(=O)N[C@@H](CCC(=O)O)C(=O)N[C@@H](CCC(=O)O)C(=O)N[C@@H](CC(C)C)C(=O)N[C@@H](CCC(N)=O)C(=O)N[C@@H](CCCNC(=N)N)C(=O)N[C@@H](Cc1ccc(O)cc1)C(=O)N[C@@H](Cc1ccc(O)cc1)C(=O)N[C@H](C(=O)NCC(=O)N[C@@H](CC(C)C)C(=O)N[C@@H](CCCNC(=N)N)C(=O)N[C@@H](Cc1c[nH]cn1)C(=O)N[C@@H](Cc1ccc(O)cc1)C(=O)N[C@@H](Cc1ccc(O)cc1)C(=O)N[C@@H](CC(N)=O)C(=O)N[C@@H](Cc1c[nH]c2ccccc12)C(=O)N[C@@H](CC(C)C)C(=O)N[C@H](C(=O)N[C@@H](CCCNC(=N)N)C(=O)N[C@@H](CCC(N)=O)C(=O)N[C@@H](CCCNC(=N)N)C(=O)N[C@@H](Cc1ccc(O)cc1)C(N)=O)[C@@H](C)O)C(C)C)[C@@H](C)O
B5: Compound 42 (peptide)
peptide: Isovaleryl-APEK([Ahx-γGlu-C18 diacid])PEEPATPEELQRYYVSLRHYYNWLTRQRY-NH2
SMILES: CC(C)CC(=O)N[C@@H](C)C(=O)N1CCC[C@H]1C(=O)N[C@@H](CCC(=O)O)C(=O)N[C@@H](CCCCNC(=O)CCCCCNC(=O)CC[C@H](NC(=O)CCCCCCCCCCCCCCCCC(=O)O)C(=O)O)C(=O)N1CCC[C@H]1C(=O)N[C@@H](CCC(=O)O)C(=O)N[C@@H](CCC(=O)O)C(=O)N1CCC[C@H]1C(=O)N[C@@H](C)C(=O)N[C@H](C(=O)N1CCC[C@H]1C(=O)N[C@@H](CCC(=O)O)C(=O)N[C@@H](CCC(=O)O)C(=O)N[C@@H](CC(C)C)C(=O)N[C@@H](CCC(N)=O)C(=O)N[C@@H](CCCNC(=N)N)C(=O)N[C@@H](Cc1ccc(O)cc1)C(=O)N[C@@H](Cc1ccc(O)cc1)C(=O)N[C@H](C(=O)N[C@@H](CO)C(=O)N[C@@H](CC(C)C)C(=O)N[C@@H](CCCNC(=N)N)C(=O)N[C@@H](Cc1c[nH]cn1)C(=O)N[C@@H](Cc1ccc(O)cc1)C(=O)N[C@@H](Cc1ccc(O)cc1)C(=O)N[C@@H](CC(N)=O)C(=O)N[C@@H](Cc1c[nH]c2ccccc12)C(=O)N[C@@H](CC(C)C)C(=O)N[C@H](C(=O)N[C@@H](CCCNC(=N)N)C(=O)N[C@@H](CCC(N)=O)C(=O)N[C@@H](CCCNC(=N)N)C(=O)N[C@@H](Cc1ccc(O)cc1)C(N)=O)[C@@H](C)O)C(C)C)[C@@H](C)O
B6: Compound 43 (peptide)
peptide: Isovaleryl-APAK([Ahx-γGlu-C18 diacid])PEAAAEPEELQRYYVSLRHYYNWLTRQRY-NH2
SMILES: CC(C)CC(=O)N[C@@H](C)C(=O)N1CCC[C@H]1C(=O)N[C@@H](C)C(=O)N[C@@H](CCCCNC(=O)CCCCCNC(=O)CC[C@H](NC(=O)CCCCCCCCCCCCCCCCC(=O)O)C(=O)O)C(=O)N1CCC[C@H]1C(=O)N[C@@H](CCC(=O)O)C(=O)N[C@@H](C)C(=O)N[C@@H](C)C(=O)N[C@@H](C)C(=O)N[C@@H](CCC(=O)O)C(=O)N1CCC[C@H]1C(=O)N[C@@H](CCC(=O)O)C(=O)N[C@@H](CCC(=O)O)C(=O)N[C@@H](CC(C)C)C(=O)N[C@@H](CCC(N)=O)C(=O)N[C@@H](CCCNC(=N)N)C(=O)N[C@@H](Cc1ccc(O)cc1)C(=O)N[C@@H](Cc1ccc(O)cc1)C(=O)N[C@H](C(=O)N[C@@H](CO)C(=O)N[C@@H](CC(C)C)C(=O)N[C@@H](CCCNC(=N)N)C(=O)N[C@@H](Cc1c[nH]cn1)C(=O)N[C@@H](Cc1ccc(O)cc1)C(=O)N[C@@H](Cc1ccc(O)cc1)C(=O)N[C@@H](CC(N)=O)C(=O)N[C@@H](Cc1c[nH]c2ccccc12)C(=O)N[C@@H](CC(C)C)C(=O)N[C@H](C(=O)N[C@@H](CCCNC(=N)N)C(=O)N[C@@H](CCC(N)=O)C(=O)N[C@@H](CCCNC(=N)N)C(=O)N[C@@H](Cc1ccc(O)cc1)C(N)=O)[C@@H](C)O)C(C)C

This assay has as its target T1, human NPY2 receptor (human, UniProt P49146 1-381).
T1 construct: whole, on cells; also called hNPY2-R; hNPY2R
T1 sequence (looked up): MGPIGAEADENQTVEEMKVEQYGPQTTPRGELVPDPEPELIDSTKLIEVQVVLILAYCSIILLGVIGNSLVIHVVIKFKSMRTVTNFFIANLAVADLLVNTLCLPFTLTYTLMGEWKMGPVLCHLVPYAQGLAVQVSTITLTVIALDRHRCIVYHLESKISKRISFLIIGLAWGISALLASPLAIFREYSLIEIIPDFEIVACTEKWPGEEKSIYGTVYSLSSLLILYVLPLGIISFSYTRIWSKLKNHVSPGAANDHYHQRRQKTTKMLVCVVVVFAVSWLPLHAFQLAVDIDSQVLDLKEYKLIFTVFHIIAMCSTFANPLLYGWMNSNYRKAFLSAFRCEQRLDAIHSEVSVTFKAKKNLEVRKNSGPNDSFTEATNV
As to the kind of experiment: RLB: displacement of 125I-PYY(1-36) from hNPY2R membranes.
On to B1, for which the inhibition constant Ki – broadly, the dissociation constant of the complex between target and ligand, obtained from inhibition or displacement – was found to be 2.73 nM.
Take B2: the Ki is 19.8 nM.
Regarding B3, the Ki turned out to be 6.17 nM.
B4 yielded a Ki of 5.86 nM.
Regarding B5, the Ki was determined as 1.98 nM.
For B6, the inhibition constant (Ki) stood at 2.49 nM.
